# Source: patent publication US20170198014A1 (UNIVERSITY WASHINGTON THROUGH ITS CENTER FOR …, published 2017)
# Biological target: hemagglutinin H1 (A/California/04/2009) (influenza A virus A/California/04/2009 …, UniProt P26140 18-529)
# Test: yeast surface display titration
binder,measurement,value
SB24alt1-1 (designed binder) ASGMLAISMDTDKISNSFEDCKYFQLYVLSAGWTNTIFNDESGKEEIVKMSVDAIICKNISEENYKKFSKKIEIYHAEGDDVDKNISLFLEGELSKISNP,binding result,no binding
SB24solo2 (designed binder) ASGMLAISMDTDKISNSFEDCKYFLIELKSAGWTNTIFNDESGKEEIVKMGVDAIICKNISEENYKKFSKKIEIYHAEGDDVNKNISLFLEGELSKISNP,binding result,no binding
